Measured values reported in the supplement of paper PMC9170038.

These sequences were tested on K4 kissing-loop RNA reporter (assay: apparent KD of K4 kissing-loop reporter; higher = weaker reporter binding). Details: Eterna round: R107; input ligand: none.
Description: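 RNA-MaP round R107: designed RNA switches with theophylline, tryptophan, arginine or FMN aptamers are transcribed on-chip within common flanks. They are titrated with a labelled K4 kissing-loop RNA reporter in RNA-MaP buffer (100 mM Tris pH 7.5, 80 mM KCl, 4 mM MgCl2), without ligand or with the indicated ligand. Median apparent KD per design.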
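Further: bound reporter read as fluorescence of individual clusters on recovered sequencing chips by microscopy, with normalized cluster intensities fitted with a binding model.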

Sequence | apparent KD of K4 kissing-loop reporter
UGAUAGGACAGAAGGAGCGGUAGUGAUGUUGCCAAAAGGGUAAGGUGUCAAAAGACACCCUACCAGGUAGGUCGCUGUCCUAUCU | 84.6 nM
CCAACAACGAGUGAUGUUCGUUGAUCAGAAGGAGCGUCAAUAAUGACAGGUAGGUCGCUGAUAAUUGGAAAUAGGGCAAUAGCUU [Same State Arginine A GF12] | 115 nM
AUGUACACGAUAGUGUACUCCUAGUGAUGUUAGGAUAUGCAGAUAUGCAGAAGGAACAAGUCAUCUGACAAUAGUCGGAUGACAA [FmnAX 9 #OpenEnded #K4Early] | 119 nM
ACGUGAAGCGACUCCUAGUUAAACCGGGAAGGAGCGCGGAUAACCGCAGGUAGGUCGCCCGGAAGCCGGACCAGUGAUGUUGGUC [Exclusion Arginine A Gf 26] | 207 nM
GGAUAGGACAGAGGAUAUCCUAAAGAGGCAAGAAUAACUUGUCUCAAAUGGAUGACCAGUGAUGUUGGAGAAGGCUGUCCUAUCG [FmnBX 6 - #SwitchBubble #StaticStem] | 207 nM
GGGAGUAGUGCGGCCGCCACUGAGAAAGAAGAAGAAUAUAGUGAUGUUAUAUAGGAAGGGAAGAAUAGGACCGGGCAUUAGAUUU [SSTRyptB.Z] | 340 nM
UGAUACCAGACUGAUACCAGCCAGUGAUGUUGGCUAAUCCAAGAAGGAGUCAAAGACUCCGGCCCUUGGCAGCAGUCUGGUAUCU [TheoBX 3 #SwitchBubble #StaticStem] | 111 nM
GCCGUACGCAUGGAUACCAGCGCUCGUCACCUAGCAGUGAUGUUGCUAAUGCCACGAGGACGCCCUUGGCAGCCAUGCGUACGGC | 102 nM
CGCAAAUCGUCGGCCGCCACUGCAUUUGAACGCUAAUUGUCUCUGCGCGGAGUGAUGUUCUGUGCCAGGACCGGGACGGAUUUCG [theeternabot_exclusion_KL_Trp_B_21] | 517 nM
GGAUAGGACAAAGGAUAUGGGCUAGGCAAGAAUAACUUGUCUAGCAAAUCCAUGAGGAGUGAUGUUCCAGAAGGUUGUCCUAUCG [FmnBX 1 A11+U75] | 122 nM
UUCUACGAGUGAUGUUCGUAGUGUAUUCGCUAGGAUAUCGUUUUUUCGAGAAGGAGUGAUGAAGUGAUACGAAAGUAUCGCUUCU [FMN A 14] | 352 nM
UGUAUGUGUCAGCGAGUGAUGUUCGACGAUACCAGACUCGAUAGAGUCCCUUGGCAGCGUAAUGCAUGCCAACUGGCACAUACUA [#SwitchBubble 12 #K4Early] | 837 nM
AAUGAUCGUAUGGCGAGGUACUCGUGUUCGAAGGAUAUUAAUAGAAUAAGAAGGUCGAAAUCGUGUCUGGAAGUGAUGUUUCCAU [theeternabot_sameState_KL_FMN_A_32] | 106 nM
UUUAAAUAUAGUGAUGUUAUAUAACAAUGACGAGGACCGGUACGGCCGCCACUCGAGAGAGAUAAUGGUCAUGCAAAUGUAUGUC [#15 K4 Tryptophan A Same State] | 789 nM
CGUGAUGUAUGGCGGUUUGUCACUUAGGAUCAGGAUAUAUAAACAAAUAGAAGGGAUGGCGGAGUGAUGUUCCGCCGGCCGCCAU [FMN A Exl V8] | 161 nM
GGGUUUGACGGAGGAUAUGCACUGAGGAGGAGAAUAUAGUGAUGUUAUAUAAGAGGAAGGAGAAGAGUAGAAGGCCGUUGGGUUU [SSFMNB.L] | 139 nM
CGUUCCUCUGUCGAUACCAGCUUCAGUUGGCGGCCAGUGAUGUUGGUAUCGCCGAUGCCAAGCCCUUGGCAGCGACAGGAGACCC [Usleanza] | 211 nM
ACUAGUUAAUCGGCCGCCACUUCUAGUGAUGUUAGAAUUAUCCAGAUUAUCAGCGUAGCACAUUGAAGGACCGGGAUAAGGUGGU [theeternabot_exclusion_KL_Trp_B_2] | 269 nM
GGUAGCAUGGCGGCCGCCACUCUUCAUUAGUGAUGUUAAUGCCGAGUGCGCUAACUCCAACAGGAGAGGACCGGGCCAUGCUACC | 501 nM
GUAAGACCGGGACUCCAGUGAUGUUGGAGGCAGGAUAUCCAGUCGAGGAGAAGGGCCAGGGAUAUCGAGCUGCUCGGUUCGUAGU [Rerareatra] | 103 nM
ACGACGCAUAGUGAUACCAGCACAAUAUGAGUGAUGUUCAACAUAUAAAUGUAAUAAUUAUGCCCUUGGCAGCACUAUGCGUCAG [KL-SSTheoB1] | 793 nM

Same assay, conditions: Eterna round: R107; input ligand: theophylline 20 uM

Sequence | apparent KD of K4 kissing-loop reporter
CUGACGCUGAUACGGUGGCCGCUGGUCGUGCGAGGACCGGUACGGCCGCCACUCGCAUGAGUGAUGUUCAUGUGUCGUCGUCGUC [#07 K4 Tryptophan A Exclusion] | 105 nM
CAACAGCUUACGGCCGCCACUCCUUUAUAUGGUGCGCACCGUUGAGCUCUAGUGAUGUUGGUGCCGAGGACCGGGUAGGAAAGUA [theeternabot_sameState_KL_Trp_B_31] | 448 nM
CUUGAUGGAAACAUCGAGUAUUUCACUGAUACCAGUAUCGAUAGAUACCCUUGGCAGCAGGAUCAGUGUUUACGAGUGAUGUUCG [Ex Theophylline A K4 9] | 380 nM
AAACAUUGGUCUGAUACCAGCUGAUCGGAAACGAUCUUGCUGGAGUGAUGUUCCAAGUAAAGCCCUUGGCAGCAGACCGAUGAAA [MAT - Same State Theophlline B - Mod of Eli - D19] | 107 nM
GGUCGCCUGAGCAGUGAUGUUGCAAGGGAAGGAGCGCGUUUUUUCGCAGGUAGGUCGCCCAAAUAAUAAGUUAAACUAGGCGACC [4.)] | 316 nM
